Several values for one entry are separate records, joined by “and”; a condition that tells them apart may be missing. Equal values may be shown once.
T1: 重组蛋白hANG2-His (human, UniProt O15123 19-496)
T1 construct: Made in Expi293 cells; not shown: C-terminal His tag
T1 sequence: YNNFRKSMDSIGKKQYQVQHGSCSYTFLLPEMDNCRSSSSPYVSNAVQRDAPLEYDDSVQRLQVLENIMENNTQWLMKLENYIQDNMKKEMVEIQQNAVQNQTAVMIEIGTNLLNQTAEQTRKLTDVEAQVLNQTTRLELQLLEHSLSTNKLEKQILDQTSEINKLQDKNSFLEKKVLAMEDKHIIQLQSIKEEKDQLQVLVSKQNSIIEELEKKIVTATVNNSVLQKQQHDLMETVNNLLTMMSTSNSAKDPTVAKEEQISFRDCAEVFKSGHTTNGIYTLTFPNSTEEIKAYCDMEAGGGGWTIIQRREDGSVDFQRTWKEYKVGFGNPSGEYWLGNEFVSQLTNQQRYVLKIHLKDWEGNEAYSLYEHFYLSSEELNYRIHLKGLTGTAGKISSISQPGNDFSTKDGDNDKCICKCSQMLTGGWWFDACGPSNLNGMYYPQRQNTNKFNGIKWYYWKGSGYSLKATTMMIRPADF


Key:
hANG1-Fc = hANG1-Fc (human, UniProt Q15389 16-498, limits assumed); assay: ELISA, 2μg/mL hANG1-Fc coated, anti-human Kappa HRP detection
hANG1-Fc, sequence (Q15389 other isoform, or with tags, fused parts or gaps limits assumed): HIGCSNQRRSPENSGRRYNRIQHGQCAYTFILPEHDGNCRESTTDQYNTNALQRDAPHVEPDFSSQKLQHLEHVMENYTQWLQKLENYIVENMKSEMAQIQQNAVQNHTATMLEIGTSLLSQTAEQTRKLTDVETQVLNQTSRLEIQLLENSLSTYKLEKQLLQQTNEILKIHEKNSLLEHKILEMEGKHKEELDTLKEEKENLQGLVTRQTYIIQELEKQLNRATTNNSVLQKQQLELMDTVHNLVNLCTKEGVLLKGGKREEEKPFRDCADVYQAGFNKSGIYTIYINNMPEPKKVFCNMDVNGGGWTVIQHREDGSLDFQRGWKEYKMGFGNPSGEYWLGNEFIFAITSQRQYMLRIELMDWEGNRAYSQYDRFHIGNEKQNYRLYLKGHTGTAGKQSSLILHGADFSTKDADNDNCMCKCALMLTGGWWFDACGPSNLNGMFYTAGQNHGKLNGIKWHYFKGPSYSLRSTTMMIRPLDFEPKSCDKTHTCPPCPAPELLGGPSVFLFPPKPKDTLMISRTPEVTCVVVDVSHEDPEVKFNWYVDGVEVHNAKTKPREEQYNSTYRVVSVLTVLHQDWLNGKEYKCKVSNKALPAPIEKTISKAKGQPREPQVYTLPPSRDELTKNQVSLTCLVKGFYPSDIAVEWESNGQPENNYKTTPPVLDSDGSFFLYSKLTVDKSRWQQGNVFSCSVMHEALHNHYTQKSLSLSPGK

重组蛋白hANG2-His = target: T1, 重组蛋白hANG2-His; assay: ELISA, hANG2-His coated, anti-human-IgG-Fc-HRP detection
生物素标记的hANG2-Fc蛋白 = target: T2, 生物素标记的hANG2-Fc蛋白 (human, biotin-labelled (sites not given)); assay: FACS blocking of biotin-hANG2-Fc binding to huTie2-HEK293 cells
T2 construct: also called biotin-hANG2-Fc

Row | binding result (hANG1-Fc) | binding result (重组蛋白hANG2-His) | IC50 (生物素标记的hANG2-Fc蛋白) | Binder
1 | no binding | binds |  | 全人源抗体17 (antibody, human IgG1, kappa, V domains shown, Fully human anti-ANG2 antibody in IgG1 format) VH: EVQLVESGGGVVKPGGSLRLSCAASGFTFNKYTINWVRQTPGKGLELVADISSGGDYVNYADSVKGRFTISRDNAKDSVYLLMNGLRAEDTAVYYCARDALTYSNNWLDSWGQGTLVTVSS VL: DIQLTQSPSFLSASVGDRVTITCRASQGISSYLAWYQQKPGKAPKLLIYAASTLQSGVPSRFSGGGYGTDFTLTISSLQPEDFATYYCQQFESYPLTFGGGTRLEIKR
2 | no binding | binds | 0.226 nM and 0.44 nM | 全人源抗体78A74-7 (antibody, human IgG1, kappa, V domains shown, Fully human anti-ANG2 antibody in IgG1 format) VH: QVQLVESGGGLVKPGGSLRLSCAASGFTFSSYSMNWVRQAPGKGLEWVAVISYDGSNKYYADSVKGRFTISRDNSKNTLYLQMNSLRAEDTAVYYCAKATLDGYTAGYYYGMDVWGQGTTVTVSS VL: EIVLTQSPATLSLSPGERATLSCRASQSVSSYLAWYQQKPGQAPRLLIYDASNRATGIPARFSGSGSGTDFTLTISSLEPEDFAVYYCQLMSNWPPEWTFGQGTKVEIKR

Reference: patent CN116265487A (SANYOU BIO INC, dated 2023)
